In patent publication US5385834, “Mutant T7 RNA polymerase GP1(lys222) exhibiting altered promoter recognition” (Georgia Tech Research Corporation):

Assays:
[1] = molecular target: T7 RNA polymerase mutant GP1(lys222) (Bacteriophage T7, UniProt P00573 SEQ:1-883, E222K); experiment: EMSA; +/-5e3; 20-fold below wild-type; more easily disrupted by lambda DNA; 25 C; settings: label: 32P
Procedure: (§1) FIG. 8: Binding of a T7 Promoter by Wild-type T7 RNA Polymerase and GP1(lys222). […] Lane 1-no RNA polymerase, 5 µM promoter; Lane 2-26.5 nM GP1(lys222), 5 µM promoter; Lane 3-132.7 nM GP1(lys222), 5 µM promoter; Lane 4-26.5 nM GP1(lys222), 5 µM promoter, 3 µg lambda DNA; Lane 5-132.7 nM GP1(lys222), 5 µM promoter, 3 µg lambda DNA; Lane 6-12.9 nM T7 RNA polymerase, 5 µM promoter, Lane 7-64.7 nM T7 RNA polymerase, 5 µM promoter; Lane 8-12.9 nM T7 RNA polymerase, 5 µM promoter, 3 µg lambda DNA; Lane 9-64.7 nM T7 RNA polymerase, 5 µM promoter, 3 µg lambda DNA. Complex=Position of the enzyme/promoter complexes. Promoter=Position of the unbound promoter oligo.
(§2) 12. Estimation of Promoter Binding. The ability of T7 RNA polymerase and GP1(lys222) to bind a T7 promoter was determined by a gel-retardation method [Muller, D. K., et al., *Biochemistry*, 27: 5763-5771 (1988)]. […] The promoter/polymerase complexes were then cut out of the gel, and the amount of promoter contained in the complexes was measured by liquid scintillation.

[2] = molecular target: T7 RNA polymerase (wild-type) (Bacteriophage T7, UniProt P00573 SEQ:1-883); experiment: EMSA; +/-2.2e5; 10 mM K phosphate pH 7.8, 1 mM EDTA, 20 mM NaCl, 25 C; settings: label: 32P
Procedure: as §1, §2

B1: 24 bp T7 promoter oligonucleotide (dsDNA)
DNA 1: ATTAATACGACTCACTATAGGACT
DNA 2: AGTCCTATAGTGAGTCGTATTAAT
Binder B1 has a Ka [1] of 14000 M⁻¹ and a Ka [2] of 280000 M⁻¹.
